Experimental data reported in paper PMC2259325.
Like-named read-outs stand apart in the source and are kept apart here.

Columns and labels:
[1] = target: GST-Fyn SH3 domain fusion protein (wild type) (UniProt P06241); assay: SPR; Biacore 3000, HBS buffer (10 mM Hepes-NaOH pH 7.4, 150 mM NaCl, 0.005% Tween-20), 25°C; GST-SH3 captured on CM5 chip via amine-coupled anti-GST antibody; NS5A 3 μM - 100 nM flowed over, in triplicate; 1:1 Langmuir fit
Hck SH3 (Homo sapiens) [2] = target: Hck SH3 (Homo sapiens) (UniProt P08631); conditions: cited from earlier work
Hck SH3 (Homo sapiens), sequence (P08631 75-141): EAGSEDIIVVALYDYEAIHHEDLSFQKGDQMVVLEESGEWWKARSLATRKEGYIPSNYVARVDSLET

Hck SH3 (Homo sapiens) [3] = target: Hck SH3 (Homo sapiens) (UniProt P08631); conditions: cited from earlier work; remark: listed apart in the source

GST-Fyn SH3 domain fusion protein (wild type), sequence (P06241 82-143): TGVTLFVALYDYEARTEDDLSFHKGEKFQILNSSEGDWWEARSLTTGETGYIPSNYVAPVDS

## NS5A(Δ250), N-terminally truncated hepatitis C virus non-structural 5A protein (domain or fragment)
[1]
  koff: 0.00494 s⁻¹
  kon: 9050 M⁻¹ s⁻¹

## Nef (from UniProt P04324)
Hck SH3 (Homo sapiens) [2]
  Kd: 250 nM

## Nef PxxPxR-containing peptide PxxPxR peptide (from UniProt P04324)
Hck SH3 (Homo sapiens) [3]
  Kd: 91 µM
